Laboratory results: patent publication US20240109972A1, “ANTIBODY AND TAXANE COMBINATION THERAPY” (Genmab A/S, priority 2020, published 2024)

Test: GEN1046 in combination with docetaxel in metastatic NSCLC subjects, adverse effects
Assay type: in vivo, human
Experimental: Docetaxel was administered at a dose of 55 mg/m^2 or 75 mg/m^2 depending on the number of prior Dose Limiting Toxicities observed. The maximum tested dose of docetaxel was be 75 mg/m^2.
Subjects with a histological or cytological diagnosis of non-squamous NSCLC must not have an EGFR-sensitizing mutation and/or ALK translocation/ROS1 rearrangement. EGFR sensitizing mutations are those mutations that are amenable to treatment with an approved TKI. Documentation of EGFR and ALK status should be available per local assessment.

GEN1046: PD-L1×4-1BB bispecific antibody: PD-L1-547-FEAL combined with CD137-009-HC7LC2-FEAR (SEQ ID NOs: 1, 5, 21, 19; 8, 12, 22, 20)
Tolerability of the combination (GEN1046 100 mg with Docetaxel 55 or 75 mg/m^2): manageable and well tolerated
Alopecia Grade 1, GEN1046-related (GEN1046 + 55 mg/m^2 Docetaxel): 1
Alopecia Grade 2, GEN1046-related (GEN1046 + 55 mg/m^2 Docetaxel): 0
Alopecia Grade 3, GEN1046-related (GEN1046 + 55 mg/m^2 Docetaxel): 0
Alopecia Grade 4, GEN1046-related (GEN1046 + 55 mg/m^2 Docetaxel): 0
Alopecia Grade 5, GEN1046-related (GEN1046 + 55 mg/m^2 Docetaxel): 0
Anemia Grade 1, GEN1046-related (GEN1046 + 55 mg/m^2 Docetaxel): 0
Anemia Grade 2, GEN1046-related (GEN1046 + 55 mg/m^2 Docetaxel): 0
Anemia Grade 3, GEN1046-related (GEN1046 + 55 mg/m^2 Docetaxel): 3
Anemia Grade 4, GEN1046-related (GEN1046 + 55 mg/m^2 Docetaxel): 0
Anemia Grade 5, GEN1046-related (GEN1046 + 55 mg/m^2 Docetaxel): 0
Blood alkaline phosphatase increase Grade 1, GEN1046-related (GEN1046 + 55 mg/m^2 Docetaxel): 0
Blood alkaline phosphatase increase Grade 2, GEN1046-related (GEN1046 + 55 mg/m^2 Docetaxel): 1
Blood alkaline phosphatase increase Grade 3, GEN1046-related (GEN1046 + 55 mg/m^2 Docetaxel): 0
Blood alkaline phosphatase increase Grade 4, GEN1046-related (GEN1046 + 55 mg/m^2 Docetaxel): 0
Blood alkaline phosphatase increase Grade 5, GEN1046-related (GEN1046 + 55 mg/m^2 Docetaxel): 0
Decreased appetite Grade 1, GEN1046-related (GEN1046 + 55 mg/m^2 Docetaxel): 0
Decreased appetite Grade 2, GEN1046-related (GEN1046 + 55 mg/m^2 Docetaxel): 1
Decreased appetite Grade 3, GEN1046-related (GEN1046 + 55 mg/m^2 Docetaxel): 0
Decreased appetite Grade 4, GEN1046-related (GEN1046 + 55 mg/m^2 Docetaxel): 0
Decreased appetite Grade 5, GEN1046-related (GEN1046 + 55 mg/m^2 Docetaxel): 0
Dyspnea Grade 1, GEN1046-related (GEN1046 + 55 mg/m^2 Docetaxel): 0
Dyspnea Grade 2, GEN1046-related (GEN1046 + 55 mg/m^2 Docetaxel): 1
Dyspnea Grade 3, GEN1046-related (GEN1046 + 55 mg/m^2 Docetaxel): 0
Dyspnea Grade 4, GEN1046-related (GEN1046 + 55 mg/m^2 Docetaxel): 0
Dyspnea Grade 5, GEN1046-related (GEN1046 + 55 mg/m^2 Docetaxel): 0
Fatigue Grade 1, GEN1046-related (GEN1046 + 55 mg/m^2 Docetaxel): 0
Fatigue Grade 2, GEN1046-related (GEN1046 + 55 mg/m^2 Docetaxel): 2
Fatigue Grade 3, GEN1046-related (GEN1046 + 55 mg/m^2 Docetaxel): 1
Fatigue Grade 4, GEN1046-related (GEN1046 + 55 mg/m^2 Docetaxel): 0
Fatigue Grade 5, GEN1046-related (GEN1046 + 55 mg/m^2 Docetaxel): 0
Hypokalemia Grade 1, GEN1046-related (GEN1046 + 55 mg/m^2 Docetaxel): 0
Hypokalemia Grade 2, GEN1046-related (GEN1046 + 55 mg/m^2 Docetaxel): 1
Hypokalemia Grade 3, GEN1046-related (GEN1046 + 55 mg/m^2 Docetaxel): 0
Hypokalemia Grade 4, GEN1046-related (GEN1046 + 55 mg/m^2 Docetaxel): 0
Hypokalemia Grade 5, GEN1046-related (GEN1046 + 55 mg/m^2 Docetaxel): 0
Hypomagnesaemia Grade 1, GEN1046-related (GEN1046 + 55 mg/m^2 Docetaxel): 1
Hypomagnesaemia Grade 2, GEN1046-related (GEN1046 + 55 mg/m^2 Docetaxel): 0
Hypomagnesaemia Grade 3, GEN1046-related (GEN1046 + 55 mg/m^2 Docetaxel): 0
Hypomagnesaemia Grade 4, GEN1046-related (GEN1046 + 55 mg/m^2 Docetaxel): 0
Hypomagnesaemia Grade 5, GEN1046-related (GEN1046 + 55 mg/m^2 Docetaxel): 0
Nausea Grade 1, GEN1046-related (GEN1046 + 55 mg/m^2 Docetaxel): 1
Nausea Grade 2, GEN1046-related (GEN1046 + 55 mg/m^2 Docetaxel): 0
Nausea Grade 3, GEN1046-related (GEN1046 + 55 mg/m^2 Docetaxel): 0
Nausea Grade 4, GEN1046-related (GEN1046 + 55 mg/m^2 Docetaxel): 0
Nausea Grade 5, GEN1046-related (GEN1046 + 55 mg/m^2 Docetaxel): 0
Neutrophil count decreased Grade 1, GEN1046-related (GEN1046 + 55 mg/m^2 Docetaxel): 0
Neutrophil count decreased Grade 2, GEN1046-related (GEN1046 + 55 mg/m^2 Docetaxel): 0
Neutrophil count decreased Grade 3, GEN1046-related (GEN1046 + 55 mg/m^2 Docetaxel): 1
Neutrophil count decreased Grade 4, GEN1046-related (GEN1046 + 55 mg/m^2 Docetaxel): 0
Neutrophil count decreased Grade 5, GEN1046-related (GEN1046 + 55 mg/m^2 Docetaxel): 0
Pyrexia Grade 1, GEN1046-related (GEN1046 + 55 mg/m^2 Docetaxel): 1
Pyrexia Grade 2, GEN1046-related (GEN1046 + 55 mg/m^2 Docetaxel): 0
Pyrexia Grade 3, GEN1046-related (GEN1046 + 55 mg/m^2 Docetaxel): 0
Pyrexia Grade 4, GEN1046-related (GEN1046 + 55 mg/m^2 Docetaxel): 0
Pyrexia Grade 5, GEN1046-related (GEN1046 + 55 mg/m^2 Docetaxel): 0
Sinus tachycardia Grade 1, GEN1046-related (GEN1046 + 55 mg/m^2 Docetaxel): 0
Sinus tachycardia Grade 2, GEN1046-related (GEN1046 + 55 mg/m^2 Docetaxel): 1
Sinus tachycardia Grade 3, GEN1046-related (GEN1046 + 55 mg/m^2 Docetaxel): 0
Sinus tachycardia Grade 4, GEN1046-related (GEN1046 + 55 mg/m^2 Docetaxel): 0
Sinus tachycardia Grade 5, GEN1046-related (GEN1046 + 55 mg/m^2 Docetaxel): 0
Total treated subjects with related TEAEs Grade 1, GEN1046-related (GEN1046 + 55 mg/m^2 Docetaxel): 4
Total treated subjects with related TEAEs Grade 2, GEN1046-related (GEN1046 + 55 mg/m^2 Docetaxel): 4
Total treated subjects with related TEAEs Grade 3, GEN1046-related (GEN1046 + 55 mg/m^2 Docetaxel): 3
Total treated subjects with related TEAEs Grade 4, GEN1046-related (GEN1046 + 55 mg/m^2 Docetaxel): 0
Total treated subjects with related TEAEs Grade 5, GEN1046-related (GEN1046 + 55 mg/m^2 Docetaxel): 0
Vaginal hemorrhage Grade 1, GEN1046-related (GEN1046 + 55 mg/m^2 Docetaxel): 1
Vaginal hemorrhage Grade 2, GEN1046-related (GEN1046 + 55 mg/m^2 Docetaxel): 0
Vaginal hemorrhage Grade 3, GEN1046-related (GEN1046 + 55 mg/m^2 Docetaxel): 0
Vaginal hemorrhage Grade 4, GEN1046-related (GEN1046 + 55 mg/m^2 Docetaxel): 0
Vaginal hemorrhage Grade 5, GEN1046-related (GEN1046 + 55 mg/m^2 Docetaxel): 0
Vomiting Grade 1, GEN1046-related (GEN1046 + 55 mg/m^2 Docetaxel): 0
Vomiting Grade 2, GEN1046-related (GEN1046 + 55 mg/m^2 Docetaxel): 1
Vomiting Grade 3, GEN1046-related (GEN1046 + 55 mg/m^2 Docetaxel): 0
Vomiting Grade 4, GEN1046-related (GEN1046 + 55 mg/m^2 Docetaxel): 0
Vomiting Grade 5, GEN1046-related (GEN1046 + 55 mg/m^2 Docetaxel): 0
Amylase increased Grade 1, GEN1046-related (GEN1046 + 75 mg/m^2 Docetaxel): 1
Amylase increased Grade 2, GEN1046-related (GEN1046 + 75 mg/m^2 Docetaxel): 0
Amylase increased Grade 3, GEN1046-related (GEN1046 + 75 mg/m^2 Docetaxel): 0
Amylase increased Grade 4, GEN1046-related (GEN1046 + 75 mg/m^2 Docetaxel): 0
Amylase increased Grade 5, GEN1046-related (GEN1046 + 75 mg/m^2 Docetaxel): 0
Anemia Grade 1, GEN1046-related (GEN1046 + 75 mg/m^2 Docetaxel): 0
Anemia Grade 2, GEN1046-related (GEN1046 + 75 mg/m^2 Docetaxel): 1
Anemia Grade 3, GEN1046-related (GEN1046 + 75 mg/m^2 Docetaxel): 0
Anemia Grade 4, GEN1046-related (GEN1046 + 75 mg/m^2 Docetaxel): 0
